{"source": "the nanobody polyreactivity screen of Harvey et al. (2022)"}
{"experiment": "yeast display, Sf9 membrane polyspecificity reagent, FACS + sequencing; frameworks hold sequencing errors", "procedure,_shortened": "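Genes from sorted yeast were amplified by colony PCR, read by MiSeq 2 × 250 sequencing and filtered on CDR length. These cells carried a synthetic nanobody library in Saccharomyces cerevisiae BJ5465 and were sorted by FACS into low and high (top ~1%) gates on anti-HA and streptavidin fluorescence. Polyreactivity is labelled according to the gate of origin.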"}
{"sequence": "QVQLVESGGGLVQAGGSLRLSCAASGSTFKRNAMGWYRQAPGKERELVAAISFRGGSTYYADSVKGRFTISRDNAKNTVYLQMNSLKPEDTAVYSCAAGIYRIRGGGISFDYWGQGTQVTVSS", "polyreactivity (PSR sort gate)": "high polyreactivity"}
{"sequence": "QVQLVESGGGLVQAGGSLRLSCAASGSTFKRYAMGWYRQAPGKDRELVAAIRRGGITNYADSVKGRFTISRDNAKNTVYLQMNSLKPEDTAVYYCAKDGVTYPYSYEYDYWGQGTQVTVSS", "polyreactivity (PSR sort gate)": "low polyreactivity"}
{"sequence": "QVQLVESGGGLVQAGGSLRLSCAASGSTFKRYAMGWYRQAPGKERELVAAISSGGTTNYADSVKGRFTISRDNAKNTVYLQMNSLKPEDTAVYYCNRKFRYSSHTNYYYWGQGTQVTVSS", "polyreactivity (PSR sort gate)": "high polyreactivity"}
{"sequence": "QVQLVESGGGLVQAGGSLRLSCAASGSTFKRYAMGWYRQAPGKERELVAAITNGDRTNYADSVKGRFTISRDNAKKTVYLQMNSLKPEDTAVYYCAAAYSRYTSRFYYWGQGTQVTVSS", "polyreactivity (PSR sort gate)": "high polyreactivity"}
{"sequence": "QVQLVESGGGLVQAGGSLRLSCAASGSTFKRYAMGWYRQAPGKERELVASISSGGSTNYADSVKGRFTISRDNAKNTVYLQMNSLKPEDTAVYYCATYLVTGGGLNVRYDYWGQGTQVTVSS", "polyreactivity (PSR sort gate)": "high polyreactivity"}
{"sequence": "QVQLVESGGGLVQAGGSLRLSCAASGSTFKRYAMGWYRQAPGKERELVASISSGGSTNYVDSVKGRFTISRDNAKNTVYLQMNSLKPEDTAVYYCAVSYRSFRYYWERYYSWGQGTQVTVSS", "polyreactivity (PSR sort gate)": "high polyreactivity"}
{"sequence": "QVQLVESGGGLVQAGGSLRLSCAASGSTFKRYAMGWYRQAPGKERELVATINSGTSTNYADSVKGRFTISRDNAKNTVYLEMNSLKPEETAVYYCAKSFRRSVGGYGYDYWGQGTQVSVSS", "polyreactivity (PSR sort gate)": "low polyreactivity"}
{"sequence": "QVQLVESGGGLVQAGGSLRLSCAASGSTFKRYTMGWYRQAPGKERELVAAISTSSGSTYFADSVKGRFTISRDNAKISVYLQMNSLKPEDSAVYYCDAVRLRQTYPKYNYWGQGTQVTVSS", "polyreactivity (PSR sort gate)": "high polyreactivity"}
{"sequence": "QVQLVESGGGLVQAGGSLRLSCAASGSTFKTYAMGWYRQAPGKEREFVASISTSGGSTYYADSVKGRFTISRDNAKNTVYLQMNSLKPEDTAVYYCAAKGRSYGVTRMYYWGQGTQVTVSS", "polyreactivity (PSR sort gate)": "high polyreactivity"}
{"sequence": "QVQLVESGGGLVQAGGSLRLSCAASGSTFKTYAMGWYRQAPGKESELVAAISWSGGSTYYADSVKGRFTISRDNAKNTVYLQMNSLKPEDTAVYYCNAGWGYPSPWFIGEYWGQGTQVTVSS", "polyreactivity (PSR sort gate)": "low polyreactivity"}
{"sequence": "QVQLVESGGGLVQAGGSLRLSCAASGSTFKVYAMRWYRQAPGKERELVARISTRVGSTYYADSVKGRFTISRDNAKNSVYLQMNSLKAEDSAVYYCNARWWDPPYYYWGQGTQVTVSS", "polyreactivity (PSR sort gate)": "high polyreactivity"}
{"sequence": "QVQLVESGGGLVQAGGSLRLSCAASGSTFKVYTMGWYRQAPGKERELVAAITGGGGSTYYADSVKGRFTISRDNAKNTVSLQMNSLKPEDTAVYYCAAQKRGPGYPYYYWGQGTQVTVSS", "polyreactivity (PSR sort gate)": "high polyreactivity"}
{"sequence": "QVQLVESGGGLVQAGGSLRLSCAASGSTFKWYAMGWYRQAPGKERELVAAITVSGDSTYYADSVKGRFTISRDNAKNTVYLQMNSLKPEDTAVYYCAKDYQGITPYDYWGQGTQVTVSS", "polyreactivity (PSR sort gate)": "low polyreactivity"}
{"sequence": "QVQLVESGGGLVQAGGSLRLSCAASGSTFKWYGRGWSRQAPGKDRELVATINYSSSTTYYADSVKGRFTISRDNAKNTVYLQMNSLKPEDTAVYYCAKGVYWGTKSTYDYWGQGTQVTVSS", "polyreactivity (PSR sort gate)": "high polyreactivity"}
{"sequence": "QVQLVESGGGLVQAGGSLRLSCAASGSTFKYNAMGWYRQAPGKERELDAAISSSGGSTSYADSVKGRFTISRDNAKNTVYLQMNSLKPEDTAVYYCAADSYPAYLGFVGFDYWGQGSQVTVSS", "polyreactivity (PSR sort gate)": "low polyreactivity"}
{"sequence": "QVQLVESGGGLVQAGGSLRLSCAASGSTFKYNAMGWYRQAPGKERELVASISRSGGSTYYADSVKGRFTISRDNAKNTVYLQMNSLKPEDTAVYYCNVRRFVHYEYWGHGTQVTVSS", "polyreactivity (PSR sort gate)": "high polyreactivity"}
{"sequence": "QVQLVESGGGLVQAGGSLRLSCAASGSTFKYNTMGWYRQAPGKKGELVAAITISGGTTRYADSVKGRFTISRDNAKNTVYLQMNSLKPEDTAVYYCAARVYTYYYDLHKRYYWGQGTQVTVSS", "polyreactivity (PSR sort gate)": "high polyreactivity"}
{"sequence": "QVQLVESGGGLVQAGGSLRLSCAASGSTFKYYAMGWYRPAPGKERELVAAISGRGGRTYYADSVKGRFTISRDNAKNTVYLQMNSLKPEDTAVYYCNAPFLGAHHYGYEYWGQRTQVTVSS", "polyreactivity (PSR sort gate)": "high polyreactivity"}
{"sequence": "QVQLVESGGGLVQAGGSLRLSCAASGSTFKYYAMGWYRQAAGKERELVATITRRSGSTYYADSVKGRFTISRDNAKNTVYLQMNSLKPEDTAVYYCNAYGPYKYNYWGQGTQVTVSS", "polyreactivity (PSR sort gate)": "high polyreactivity"}
{"sequence": "QVQLVESGGGLVQAGGSLRLSCAASGSTFKYYAMGWYRQAPGKEMELVAAIRGGGSTNYADSVTGPFTISRDNAKNTVYLQMNSLKPEDTAVYYCAARYGWYRGYNYWGQGTQVTVSS", "polyreactivity (PSR sort gate)": "high polyreactivity"}
{"sequence": "QVQLVESGGGLVQAGGSLRLSCAASGSTFKYYAMGWYRQAPGKERELVAAISASGGTTYYADSVKGRFTISRDNAKNTVYVQMNSLKPEDTAVYDCAARYLTTFSRTDMEYWGQGTQVTVSS", "polyreactivity (PSR sort gate)": "low polyreactivity"}
{"sequence": "QVQLVESGGGLVQAGGSLRLSCAASGSTFKYYAMGWYRQAPGKERELVATITRRSGSTYYADSVKGRFTISRDNAKNTVYLQMNSLKPEDTAVYYCNAYGPYKYNYWGQGTQVTVSS", "polyreactivity (PSR sort gate)": "high polyreactivity"}
{"sequence": "QVQLVESGGGLVQAGGSLRLSCAASGSTFLDNTMGWYRQAPGKEREFVAAISSSVYSTYYADSVKGRFSISRDNAKNTVYLQMNSLKPEDTAVYFCAADRGFYPSLWDYDYWGQGTQVTVSS", "polyreactivity (PSR sort gate)": "low polyreactivity"}
{"sequence": "QVQLVESGGGLVQAGGSLRLSCAASGSTFLDYAMGWYRQAPGKERELVAGINSGGSTNYADSVKGRFTISRDNAKNTVYLQMNSLKPEDTAVYYCAADRVGNEYDYWGQGTQVTVSS", "polyreactivity (PSR sort gate)": "low polyreactivity"}
{"sequence": "QVQLVESGGGLVQAGGSLRLSCAASGSTFLDYTMGWYRQAPGKERELVAVISYRAGSTYYADSVKGRFTISRDNAKNTVYLQMNSLKPEDTAVYYCNADYYNYWLRRRYVWYESWGQGTQVTVSS", "polyreactivity (PSR sort gate)": "low polyreactivity"}
{"sequence": "QVQLVESGGGLVQAGGSLRLSCAASGSTFLGNAMGWYRQAPGKEREFVAAITVSGGSTYYADSVKGRFTISRDNAKNTVYLQMNSLKPEDTAVYYCAARYLRYSSKTIQNEDYWGQVTQVTVSS", "polyreactivity (PSR sort gate)": "high polyreactivity"}
{"sequence": "QVQLVESGGGLVQAGGSLRLSCAASGSTFLGNAMGWYRQAPGKERELVAAISGRGGSTYYADSVKGRFTISRDNAKNTVYLQMNSLKPEDTAVYYCAAPLYHYVQYGYWGQGTQVTVSS", "polyreactivity (PSR sort gate)": "high polyreactivity"}
{"sequence": "QVQLVESGGGLVQAGGSLRLSCAASGSTFLGNAMGWYRQAPGKERELVASIRWTTGSTYYADSVKGRFTISRDNAKNTVYLQMNSLKPEDTAVYYCAKGLYVQFDYWGLGTQVTVSS", "polyreactivity (PSR sort gate)": "low polyreactivity"}
{"sequence": "QVQLVESGGGLVQAGGSLRLSCAASGSTFLGYAMGWYRQAPGKERELVAAITYSAGSTYYADSVKGRFTISRDNAKNTVYLQMNSLKPEDTAVYYSAKRYSGYDHWGQGTQVTVSS", "polyreactivity (PSR sort gate)": "low polyreactivity"}
{"sequence": "QVQLVESGGGLVQAGGSLRLSCAASGSTFLGYAMGWYRQAPGKERELVAVIDNGGDTYYADSVKGRFTISRDNAKNTVYLQINSLKPEDTEVYYCAADLSYLGYWEYDYWGQGTQVTVSS", "polyreactivity (PSR sort gate)": "low polyreactivity"}
{"sequence": "QVQLVESGGGLVQAGGSLRLSCAASGSTFLKNAMGWYRQAPGKERELVAAISYSTTRTYYADSVKGRFTISRDNAKNTVYLQMNSLKPEDTAVYSCNARWQEPLKYDYWGQGTQVTVSS", "polyreactivity (PSR sort gate)": "low polyreactivity"}
{"sequence": "QVQLVESGGGLVQAGGSLRLSCAASGSTFLKNAMGWYRQAPGKERELVAAISYSTTRTYYADSVKGRFTISRDNAKNTVYLQMNSLKPEDTAVYYCNKASYWGSGFDYWGQGTQVTVSS", "polyreactivity (PSR sort gate)": "low polyreactivity"}
